Measured values from publication PMC11721465.
Values belong to the substance of their own block, whether it stands above or below them.

What was measured:
[1] = biological target: C1q (Homo sapiens) (UniProt P02745); conditions: cited from earlier work
[2] = biological target: TREM2 (19–134) T85D, biotinylated (human) (UniProt Q9NZC2); assay: BLI; biotinylated TREM2 WT or variant immobilised on SA biosensors; C1q 62.5–1000 nM; PBS with 0.1% BSA and 0.005% Tween-20; 1:1 kinetic fits
[3] = biological target: TREM2 (19–134) L75D, biotinylated (human) (UniProt Q9NZC2); assay: as above
TREM2 (19–134) L75D, biotinylated (human), sequence (Q9NZC2 19-134 L75D): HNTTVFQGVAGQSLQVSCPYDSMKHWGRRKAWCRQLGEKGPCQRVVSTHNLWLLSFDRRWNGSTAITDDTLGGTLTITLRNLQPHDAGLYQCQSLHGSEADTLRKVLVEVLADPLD

[4] = biological target: TREM2 (19–134) L71D, biotinylated (human) (UniProt Q9NZC2); assay: as above
TREM2 (19–134) L71D, biotinylated (human), sequence (Q9NZC2 19-134 L71D): as the sequence (Q9NZC2 19-134 L75D) above, with L53D, D57L counted along it

[5] = biological target: TREM2 (19–134) WT, biotinylated (human) (UniProt Q9NZC2); assay: as above
TREM2 (19–134) WT, biotinylated (human), sequence (Q9NZC2 19-134): as the sequence (Q9NZC2 19-134 L75D) above, with D57L counted along it

[6] = biological target: TREM2 (19–134) F74D, biotinylated (human) (UniProt Q9NZC2); assay: as above
TREM2 (19–134) F74D, biotinylated (human), sequence (Q9NZC2 19-134 F74D): as the sequence (Q9NZC2 19-134 L75D) above, with F56D, D57L counted along it

[7] = biological target: TREM2 (19–134) R76D, biotinylated (human) (UniProt Q9NZC2); assay: as above
TREM2 (19–134) R76D, biotinylated (human), sequence (Q9NZC2 19-134 R76D): as the sequence (Q9NZC2 19-134 L75D) above, with D57L, R58D counted along it

[8] = biological target: TREM2 (19–134) M41D, biotinylated (human) (UniProt Q9NZC2); assay: as above
TREM2 (19–134) M41D, biotinylated (human), sequence (Q9NZC2 19-134 M41D): as the sequence (Q9NZC2 19-134 L75D) above, with M23D, D57L counted along it

[9] = biological target: TREM2 (19–134) R47H, biotinylated (human) (UniProt Q9NZC2); assay: as above
TREM2 (19–134) R47H, biotinylated (human), sequence (Q9NZC2 19-134 R47H): as the sequence (Q9NZC2 19-134 L75D) above, with R29H, D57L counted along it

[10] = biological target: TREM2 (19–134) R122D/K123D, biotinylated (human) (UniProt Q9NZC2); assay: as above
TREM2 (19–134) R122D/K123D, biotinylated (human), sequence (Q9NZC2 19-134 R122D/K123D): as the sequence (Q9NZC2 19-134 L75D) above, with D57L, R104D, K105D counted along it

[11] = biological target: TREM2 (19–134) R62H, biotinylated (human) (UniProt Q9NZC2); assay: as above
TREM2 (19–134) R62H, biotinylated (human), sequence (Q9NZC2 19-134 R62H): as the sequence (Q9NZC2 19-134 L75D) above, with R44H, D57L counted along it

[12] = biological target: TREM2 (19–134) WT, biotinylated (human) (UniProt Q9NZC2); assay: BLI; sequential competition: biotinylated TREM2 WT on SA biosensors dipped into a first ligand or no ligand, then buffer, then a second ligand; binding of the second ligand = response at end minus beginning of Association 2
[13] = biological target: TREM2 (19–134) D87N, biotinylated (human) (UniProt Q9NZC2); assay: BLI; biotinylated TREM2 WT or variant immobilised on streptavidin (SA) biosensors; apoE in solution (apoE4 0.012–50 µM); PBS with 0.1% BSA and 0.005% Tween-20; double-reference subtraction; steady-state analysis
TREM2 (19–134) D87N, biotinylated (human), sequence (Q9NZC2 19-134 D87N): as the sequence (Q9NZC2 19-134 L75D) above, with D57L, D69N counted along it

C1q (Homo sapiens), sequence (P02745 23-245, chain 1 of 3): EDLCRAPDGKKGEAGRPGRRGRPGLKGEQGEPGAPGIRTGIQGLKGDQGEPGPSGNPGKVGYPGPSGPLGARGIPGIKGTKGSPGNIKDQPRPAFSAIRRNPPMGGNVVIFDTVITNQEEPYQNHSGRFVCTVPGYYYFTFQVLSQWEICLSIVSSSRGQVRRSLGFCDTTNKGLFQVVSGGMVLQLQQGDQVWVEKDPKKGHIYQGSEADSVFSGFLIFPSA
C1q (Homo sapiens), sequence (P02746 28-253, chain 2 of 3, further chain): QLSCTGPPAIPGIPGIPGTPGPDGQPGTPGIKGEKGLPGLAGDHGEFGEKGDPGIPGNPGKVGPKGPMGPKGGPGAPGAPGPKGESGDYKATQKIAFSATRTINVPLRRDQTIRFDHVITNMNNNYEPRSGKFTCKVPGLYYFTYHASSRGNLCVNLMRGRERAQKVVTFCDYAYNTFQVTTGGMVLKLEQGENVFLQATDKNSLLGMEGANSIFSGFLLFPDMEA
C1q (Homo sapiens), sequence (P02747 29-245, chain 3 of 3, further chain): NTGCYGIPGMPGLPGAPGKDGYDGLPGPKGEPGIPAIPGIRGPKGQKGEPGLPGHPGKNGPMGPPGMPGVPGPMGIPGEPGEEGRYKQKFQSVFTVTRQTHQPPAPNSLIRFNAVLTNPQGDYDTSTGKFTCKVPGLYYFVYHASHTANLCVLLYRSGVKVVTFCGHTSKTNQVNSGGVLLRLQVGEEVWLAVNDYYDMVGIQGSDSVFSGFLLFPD
TREM2, sequence (Q9NZC2 19-174): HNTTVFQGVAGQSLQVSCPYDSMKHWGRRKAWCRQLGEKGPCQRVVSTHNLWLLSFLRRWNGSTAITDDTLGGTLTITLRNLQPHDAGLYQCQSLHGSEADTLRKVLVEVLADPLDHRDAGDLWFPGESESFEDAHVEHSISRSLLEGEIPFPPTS
TREM2 (19–134) T85D, biotinylated (human), sequence (Q9NZC2 19-134 T85D): as the sequence (Q9NZC2 19-134 L75D) above, with D57L, T67D counted along it

Substance: TREM2 (from UniProt Q9NZC2)
- Kd [1]: 7.35 nM

- Kd [2]: 110 nM
- Kd [3]: 110 nM
- Kd [4]: 58 nM
- Kd [5]: 650 nM
- Kd [6]: 110 nM
- Kd [7]: 13.8 µM
- Kd [8]: 2540 nM
- Kd [9]: 180 nM
- Kd [10]: 820 nM
- Kd [11]: 1660 nM
- percent decrease of apoE4 (500 nM) binding to TREM2 after pre-binding 1000 nM C1q [12]: 3%
- percent inhibition of oAβ42 (500 nM) binding to TREM2 after pre-binding 1000 nM C1q [12]: 22%
Substance: Complement C1q (complex)

- percent reduction of oAβ42 (500 nM) binding to TREM2 after pre-binding 10 µM apoE4 [12]: 67%
Substance: apolipoprotein E4 (from UniProt P02649 19-317) (ligand)

- Kd [13]: 52 nM
Substance: apolipoprotein E2 (from UniProt P02649 19-317) (ligand)
